Results from patent US12121554B2 (priority 2018, dated 2024).

Columns and labels:
CD8 CAR T cells = type: cell-based, murine
[1] = test system: CD19-specific CAR T cells; type: cell-based; details: recombinant murine IFNβ in IL2
Protocol: FIGS. 8A-8D. CD19 CAR T cells treated with IFNβ in vitro. EGFRvIII-specific CAR T cells (with the scFv 139) and CD19-specific CAR T cells (with the scFv FMC63) were cultured in IL2 in the absence or presence of recombinant murine IFNβ, and CAR expression on the surface was measured using Biotin-Protein L and recognized with streptavidin-PE (Protein L+SA PE). Representative staining is shown in FIG. 8A, and the mean of three technical replicates was quantified in FIG. 8B. FIG. 8C: Representative expression of the activation markers CD25 and CD69 were shown for CAR T cells cultured as in FIG. 8A. FIG. 8D: Inhibitory receptor expression (PD1, LAG3, and TIM3) was quantified on CD8 CAR T or UTD cells cultured as in FIG. 8A. Average expression of three technical replicates is shown.

B1: recombinant IFNβ: recombinant murine interferon β added to CAR T cell cultures (protein, UniProt P01575 22-182, looked up)
Interferon beta: INYKQLQLQERTNIRKCQELLEQLNGKINLTYRADFKIPMEMTEKMQKSYTAFAIQEMLQNVFLVFRNNFSSTGWNETIVVRLLDELHQQTVFLKTVLEEKQEERLTWEMSSTALHLKSYYWRVQRYLKLMKYNSYAWMVVRAEIFRNFLIIRRLTRNFQN
In the case of B1, the “CAR expression on the surface of transduced CD8 T cells” value (CD8 CAR T cells) is reported as “dose-dependent increase was observed in CAR expression”, the “expression of the exhaustion markers Lag3, PD1, and Tim 3” value (CD8 CAR T cells) is reported as “dose dependent increase in expression of the exhaustion markers Lag3, PD1, and Tim 3” and the “proportion of AnnexinV positive apoptotic cells” value (CD8 CAR T cells) is reported as “dose-dependent increase in the proportion of AnnexinV positive apoptotic cells”. For the same molecule, the “proportion of triple positive cells (Lag3, PD1, Tim3)” value (CD8 CAR T cells) was “dramatically increased by IFNβ between 0 and 1 ng/mL, and plateaued at higher doses”, the “CAR expression on the surface of CD19-specific CAR T cells” value [1] was “promoted higher expression levels of the CAR molecule” and the “activation phenotype (CD25, CD69) of CD19-specific CAR T cells” value [1] was “supported an activated phenotype”. For the same molecule, the “inhibitory receptor expression of CD19-specific CAR T cells over untransduced cells” value [1] was “not associated with increased levels of inhibitory receptor expression”.
